Results: PMC3302758 (Molecular Biology of the Cell, 2012)

Molecular target: Cystic fibrosis transmembrane conductance regulator (CFTR), wild type, transiently expressed in HEK293 cells (UniProt P13569 1-1480)
Test: co-IP

Sequence of Cystic fibrosis transmembrane conductance regulator (CFTR), wild type, transiently expressed in HEK293 cells (P13569 whole entry): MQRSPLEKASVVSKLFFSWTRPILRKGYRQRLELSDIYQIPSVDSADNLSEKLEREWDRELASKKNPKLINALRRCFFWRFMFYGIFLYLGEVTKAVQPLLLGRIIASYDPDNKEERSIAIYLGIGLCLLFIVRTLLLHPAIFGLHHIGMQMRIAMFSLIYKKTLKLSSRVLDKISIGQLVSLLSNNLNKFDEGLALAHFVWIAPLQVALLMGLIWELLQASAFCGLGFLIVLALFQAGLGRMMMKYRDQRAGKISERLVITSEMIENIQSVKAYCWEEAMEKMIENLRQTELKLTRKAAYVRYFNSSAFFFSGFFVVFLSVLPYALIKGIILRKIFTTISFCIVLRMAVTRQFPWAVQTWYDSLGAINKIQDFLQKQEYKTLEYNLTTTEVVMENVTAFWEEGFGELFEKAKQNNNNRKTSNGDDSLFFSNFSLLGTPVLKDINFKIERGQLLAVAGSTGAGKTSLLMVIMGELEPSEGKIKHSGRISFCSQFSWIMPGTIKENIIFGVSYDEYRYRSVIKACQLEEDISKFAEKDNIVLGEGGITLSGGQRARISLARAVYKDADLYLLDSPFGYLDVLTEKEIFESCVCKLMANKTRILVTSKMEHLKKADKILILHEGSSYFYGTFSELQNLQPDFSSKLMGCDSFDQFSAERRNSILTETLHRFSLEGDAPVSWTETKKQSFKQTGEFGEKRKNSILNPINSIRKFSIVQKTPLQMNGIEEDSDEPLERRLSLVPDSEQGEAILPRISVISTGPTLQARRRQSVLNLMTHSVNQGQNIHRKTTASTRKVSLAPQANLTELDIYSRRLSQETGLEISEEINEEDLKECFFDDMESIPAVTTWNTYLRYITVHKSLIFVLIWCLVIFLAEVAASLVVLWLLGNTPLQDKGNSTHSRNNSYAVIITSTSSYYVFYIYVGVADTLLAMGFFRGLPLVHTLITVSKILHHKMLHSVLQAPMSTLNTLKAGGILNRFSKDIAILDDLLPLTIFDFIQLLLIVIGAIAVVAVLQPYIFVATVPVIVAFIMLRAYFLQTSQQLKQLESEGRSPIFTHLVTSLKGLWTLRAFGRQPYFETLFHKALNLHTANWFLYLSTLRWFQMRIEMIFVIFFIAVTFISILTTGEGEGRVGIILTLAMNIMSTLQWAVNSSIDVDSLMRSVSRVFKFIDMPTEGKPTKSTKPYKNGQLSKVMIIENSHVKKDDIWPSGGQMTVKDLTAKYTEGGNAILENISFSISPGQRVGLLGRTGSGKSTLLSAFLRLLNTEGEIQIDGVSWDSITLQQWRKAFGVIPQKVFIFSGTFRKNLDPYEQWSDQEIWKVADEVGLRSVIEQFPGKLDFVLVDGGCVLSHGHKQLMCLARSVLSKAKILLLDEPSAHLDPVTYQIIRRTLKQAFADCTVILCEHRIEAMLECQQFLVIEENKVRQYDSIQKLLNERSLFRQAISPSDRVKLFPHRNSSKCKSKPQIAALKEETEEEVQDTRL

B1: 14-3-3ε, endogenous in HEK293 cells (natural protein, human (endogenous in HEK293), UniProt P62258 1-255, looked up)
chain: MDDREDLVYQAKLAEQAERYDEMVESMKKVAGMDVELTVEERNLLSVAYKNVIGARRASWRIISSIEQKEENKGGEDKLKMIREYRQMVETELKLICCDILDVLDKHLIPAANTGESKVFYYKMKGDYHRYLAEFATGNDRKEAAENSLVAYKAASDIAMTELPPTHPIRLGLALNFSVFYYEILNSPDRACRLAKAAFDDAIAELDTLSEESYKDSTLIMQLLRDNLTLWTSDMQGDGEEQNKEALQDVEDENQ
Q: B1 was tested. Which “fold increase of the co-precipitate with forskolin against basal” value did it give?
A: Its value is 3.1 fold.
